Legend:
[1] = Heparinase I UV 232 nm activity assay as a function of heparin concentration (Kcat, Km); type: biochemical, porcine; conditions: for Kcat / Km: heparin 0 to 4 mg/ml, 5 mM calcium acetate, pH 7.0; for Kcat: 100 mM MOPS
Text: Heparinase II Activity Assay. Native heparinase II from Flavobacterium heparinum, was purified as described previously (Godavarti, R., and Sasisekharan, R (1996c) Biochem. Biophys. Res. Comm. 229, 770-777). The UV 232 nm assay to quantify native heparinase II enzymatic activity was similar to that reported for heparinase I (Bernstein, H., Yang, V. C., Cooney, C. L., Langer, R. (1988) Meth. Enzym. 137, 515-29). Briefly, the course of the reaction is monitored by measuring the increase in absorbance at 232 nm as a function of time under saturating substrate concentrations. With heparin as the substrate, the reaction was carried out at a concentration of 4 mg/ml in 50 mM sodium phosphate buffer, pH 7.3. With 2 mg/ml heparan sulfate, the reaction was measured in 50 mM sodium phosphate buffer, pH 6.9 (Sasisekharan, R., Moses, M. A., Nugent, M. A., Cooney, C. L., Langer, R. (1994) Proc. Natl. Acad. Sci., USA 91, 1524-1528). The temperature for all enzymatic activity measurements was kept constant at 35° C.
Heparinase I Activity Assay. The UV 232 nm assay to quantify heparinase I enzymatic activity was similar to that described in Example 1. With heparin as the substrate, the reaction was carried out at a concentration of 4 mg/ml in 100 mM MOPS, 5 mM calcium acetate, pH 7.0. The temperature for all enzymatic activity measurements was kept constant at 30° C. For the inactivation kinetic profiles, activity was measured as outlined above at precise time points.
(§1) Heparinase I Activity Assays: The UV 232 nm assay was used as described in Example 1. When measuring the enzyme activity as a function of heparin concentration, heparin concentrations varied from 0 to 4 mg/ml at a fixed calcium concentration of 5 mM (100 mM MOPS buffer/5 mM calcium acetate, pH 7.0). The data was then fit to an non-linear equation to determine Kcat and Km of heparinases I. Heparinase mutant activity was also investigated as a function of calcium concentration ranging from 0 to 10 mM. […] Activity is expressed as IU-μmol product formed/min using ∈=−3800-M^−1CM^−1.

[2] = Heparinase I activity as a function of calcium concentration (K0.5, calcium dependence); type: biochemical
Experimental: as §1

[3] = Heparin-POROS affinity chromatography; type: binding; conditions: salt concentration at which enzyme elutes from heparin-POROS column; 10 mM Tris, 1 mM EDTA pH 7.0
Experimental: Heparin-POROS chromatography: About 30-40 μg of -L r-heparinase I and the various mutant enzymes were injected into a heparin POROS (4.6 mm×100) column (PerSeptive BioSystems, Framingham, Mass.) connected to BioCAD system (PerSeptive BioSystems). Proteins were eluted using a linear gradient of […] NaCl in 10 min (10 mM Tris, 1 mM EDTA pH 7.0) and monitored at 210 nm. EDTA was added to chelate any calcium ions that may be present in the buffers.

[4] = calcium concentration at which half of the maximum enzyme activity was observed, calcium 0 to 10 mM, Table 4 first K0.5 column

B1: D210A: heparinase I CB-1 mutant, aspartate 210 changed to alanine (protein, UniProt Q05819 22-384, looked up, variant D210A)
Heparin lyase I: QQKKSGNIPYRVNVQADSAKQKAIIDNKWVAVGINKPYALQYDDKLRFNGKPSYRFELKAEDNSLEGYAAGETKGRTELSYSYATTNDFKKFPPSVYQNAQKLKTVYHYGKGICEQGSSRSYTFSVYIPSSFPDNATTIFAQWHGAPSRTLVATPEGEIKTLSIEEFLALYDRMIFKKNIAHDKVEKKAKDGKITYVAGKPNGWKVEQGGYPTLAFGFSKGYFYIKANSDRQWLTDKADRNNANPENSEVMKPYSSEYKTSTIAYKMPFAQFPKDCWITFDVAIDWTKYGKEANTILKPGKLDVMMTYTKNKKPQKAHIVNQQEILIGRNDDDGYYFKFGIYRVGNSTVPVTYNLSGYSETAR
- Kcat [1]: 74 s⁻¹
- Km [1]: 2.64 µM
- K0.5 ([2]; Table 4 second K0.5 column): 310 µM
- K0.5 [2, 4]: 310 µM
- NaCl [3]: 500 mM

B2: D212A: heparinase I CB-1 mutant, aspartate 212 changed to alanine (protein, UniProt Q05819 22-384, looked up, variant D212A)
Heparin lyase I: QQKKSGNIPYRVNVQADSAKQKAIIDNKWVAVGINKPYALQYDDKLRFNGKPSYRFELKAEDNSLEGYAAGETKGRTELSYSYATTNDFKKFPPSVYQNAQKLKTVYHYGKGICEQGSSRSYTFSVYIPSSFPDNATTIFAQWHGAPSRTLVATPEGEIKTLSIEEFLALYDRMIFKKNIAHDKVEKKDKAGKITYVAGKPNGWKVEQGGYPTLAFGFSKGYFYIKANSDRQWLTDKADRNNANPENSEVMKPYSSEYKTSTIAYKMPFAQFPKDCWITFDVAIDWTKYGKEANTILKPGKLDVMMTYTKNKKPQKAHIVNQQEILIGRNDDDGYYFKFGIYRVGNSTVPVTYNLSGYSETAR
- Kcat [1]: 65 s⁻¹
- Km [1]: 1.94 µM
- K0.5 ([2]; Table 4 second K0.5 column): 370 µM
- K0.5 [2, 4]: 370 µM
- NaCl [3]: 498 mM

B3: G213A: heparinase I CB-1 mutant, glycine 213 changed to alanine (protein, UniProt Q05819 22-384, looked up, variant G213A)
Heparin lyase I: QQKKSGNIPYRVNVQADSAKQKAIIDNKWVAVGINKPYALQYDDKLRFNGKPSYRFELKAEDNSLEGYAAGETKGRTELSYSYATTNDFKKFPPSVYQNAQKLKTVYHYGKGICEQGSSRSYTFSVYIPSSFPDNATTIFAQWHGAPSRTLVATPEGEIKTLSIEEFLALYDRMIFKKNIAHDKVEKKDKDAKITYVAGKPNGWKVEQGGYPTLAFGFSKGYFYIKANSDRQWLTDKADRNNANPENSEVMKPYSSEYKTSTIAYKMPFAQFPKDCWITFDVAIDWTKYGKEANTILKPGKLDVMMTYTKNKKPQKAHIVNQQEILIGRNDDDGYYFKFGIYRVGNSTVPVTYNLSGYSETAR
- decrease in Kcat compared to wild-type r-heparinase I [1]: about 3 fold
- Kcat [1]: 28 s⁻¹
- Km [1]: 0.97 µM
- K0.5 ([2]; Table 4 second K0.5 column): 740 µM
- K0.5 [2, 4]: 740 µM
- NaCl [3]: 476 mM

B4: T216A: heparinase I CB-1 mutant, threonine 216 changed to alanine (protein, UniProt Q05819 22-384, looked up, variant T216A)
Heparin lyase I: QQKKSGNIPYRVNVQADSAKQKAIIDNKWVAVGINKPYALQYDDKLRFNGKPSYRFELKAEDNSLEGYAAGETKGRTELSYSYATTNDFKKFPPSVYQNAQKLKTVYHYGKGICEQGSSRSYTFSVYIPSSFPDNATTIFAQWHGAPSRTLVATPEGEIKTLSIEEFLALYDRMIFKKNIAHDKVEKKDKDGKIAYVAGKPNGWKVEQGGYPTLAFGFSKGYFYIKANSDRQWLTDKADRNNANPENSEVMKPYSSEYKTSTIAYKMPFAQFPKDCWITFDVAIDWTKYGKEANTILKPGKLDVMMTYTKNKKPQKAHIVNQQEILIGRNDDDGYYFKFGIYRVGNSTVPVTYNLSGYSETAR
- decrease in Kcat compared to wild-type r-heparinase I [1]: ~2 fold
- Kcat [1]: 50 s⁻¹
- Km [1]: 1.45 µM
- K0.5 ([2]; Table 4 second K0.5 column): 430 µM
- K0.5 [2, 4]: 430 µM
- NaCl [3]: 479 mM
